Results published in patent publication US10294487B2, “Methods and compositions involving ALS variants with native substrate preference” (E I DU PONT DE NEMOURS AND COMPANY, priority 2012, dated 2019).
Substitutions are numbered along the chain they refer to. Names may count otherwise.

B1: GM-ALS_G102S_D357N: Glycine Max ALS1 with G→S at position 102 and D→N at position 357 (protein)
chain: MAATASRTTRFSSSSSHPTFPKRITRSTLPLSHQTLTKPNHALKIKCSISKPPTAAPFTKEAPTTEPFVSRFASGEPRKGADILVEALERQGVTTVFAYPGSASMEIHQALTRSAAIRNVLPRHEQGGVFAAEGYARSSGLPGVCIATSGPGATNLVSGLADALMDSVPVVAITGQVPRRMIGTDAFQETPIVEVSRSITKHNYLILDVDDIPRVVAEAFFVATSGRPGPVLIDIPKDVQQQLAVPNWDEPVNLPGYLARLPRPPAEAQLEHIVRLIMEAQKPVLYVGGGSLNSSAELRRFVELTGIPVASTLMGLGTFPIGDEYSLQMLGMHGTVYANYAVDNSDLLLAFGVRFDNRVTGKLEAFASRAKIVHIDIDSAEIGKNKQAHVSVCADLKLALKGINMILEEKGVEGKFDLGGWREEINVQKHKFPLGYKTFQDAISPQHAIEVLDELTNGDAIVSTGVGQHQMWAAQFYKYKRPRQWLTSGGLGAMGFGLPAAIGAAVANPGAVVVDIDGDGSFIMNVQELATIRVENLPVKILLLNNQHLGMVVQWEDRFYKSNRAHTYLGDPSSESEIFPNMLKFADACGIPAARVTKKEELRAAIQRMLDTPGPYLLDVIVPHQEHVLPMIPSNGSFKDVITEGDGRTRY
modifications: ALS1 variant G102S D357N
B2: GM-ALS_P178S_F559D: Glycine Max ALS1 with P→S at position 178 and F→D at position 559 (protein)
chain: B1 chain with S102G, P178S, N357D, F559D
modifications: ALS1 variant P178S F559D
B3: GM-ALS_A186D: Glycine Max ALS1 variant with a A→D mutation at position 186 (protein)
chain: B1 chain with S102G, A186D, N357D
modifications: ALS1 variant A186D
B4: GM-ALS_K237F: Glycine Max ALS1 variant with a K→F mutation at position 237 (protein)
chain: B1 chain with S102G, K237F, N357D
modifications: ALS1 variant K237F
B5: GM-ALS_A103T: Glycine Max ALS1 variant with a A→T mutation at position 103 (protein)
chain: B1 chain with S102G, A103T, N357D
modifications: ALS1 variant A103T
B6: GM-ALS_D357E: Glycine Max ALS1 variant with a D→E mutation at position 357 (protein)
chain: B1 chain with S102G, N357E
modifications: ALS1 variant D357E
B7: GM-ALS_P178S_A186V: Glycine Max ALS1 with P→S at position 178 and A→V at position 186 (protein)
chain: B1 chain with S102G, P178S, A186V, N357D
modifications: ALS1 variant P178S A186V
B8: GM-ALS_P178L: Glycine Max ALS1 variant with a P→L mutation at position 178 (protein)
chain: B1 chain with S102G, P178L, N357D
modifications: ALS1 variant P178L
B9: GM-ALS_P178A: Glycine Max ALS1 variant with a P→A mutation at position 178 (protein)
chain: B1 chain with S102G, P178A, N357D
modifications: ALS1 variant P178A
B10: GM-ALS_A186V: Glycine Max ALS1 variant with a A→V mutation at position 186 (protein)
chain: B1 chain with S102G, A186V, N357D
modifications: ALS1 variant A186V
B11: GM-ALS_P178Q: Glycine Max ALS1 variant with a P→Q mutation at position 178 (protein)
chain: B1 chain with S102G, P178Q, N357D
modifications: ALS1 variant P178Q
B12: GM-ALS_W555L: Glycine Max ALS1 variant with a W→L mutation at position 555 (protein)
chain: B1 chain with S102G, N357D, W555L
modifications: ALS1 variant W555L
B13: GM-ALS_P178S_D357N: Glycine Max ALS1 with P→S at position 178 and D→N at position 357 (protein)
chain: B1 chain with S102G, P178S
modifications: ALS1 variant P178S D357N
B14: GM-ALS_P178L_W555L: Glycine Max ALS1 with P→L at position 178 and W→L at position 555 (protein)
chain: B1 chain with S102G, P178L, N357D, W555L
modifications: ALS1 variant P178L W555L
B15: GM-ALS_K237Q: Glycine Max ALS1 variant with a K→Q mutation at position 237 (protein)
chain: B1 chain with S102G, K237Q, N357D
modifications: ALS1 variant K237Q
B16: GM-ALS_D357N: Glycine Max ALS1 variant with a D→N mutation at position 357 (protein)
chain: B1 chain with S102G
modifications: ALS1 variant D357N
B17: GM-ALS_P178A_F559D: Glycine Max ALS1 with P→A at position 178 and F→D at position 559 (protein)
chain: B1 chain with S102G, P178A, N357D, F559D
modifications: ALS1 variant P178A F559D

These molecules were tested on G. max ALS1 protein (assay: Colorimetric ALS kinetic assay (Km, kcat) with pyruvate as substrate). Details: not given.
Type: biochemical, Glycine max
Procedure: A survey of known ALS (AcetoLactate Synthase) gene variants (Table 2) was performed, and a number of ALS variants were selected for kinetic evaluation based on breadth and strength of insensitivity to ALS-inhibitor herbicides as well as kinetic activity parameters including the ratio of substrate preferences. The selected ALS gene variants (Table 3) were generated by PCR mediated site-directed mutagenesis. Finnzymes PHUSION® DNA polymerase (Cat. No. F-530S) was used for the PCR reactions, following the instructions for recommended temperatures and cycles in the PHUSION® protocol. Some mutagenesis reactions were assisted by the use of IN-FUSION® enzyme (Clontech Cat. No. 639620) to circularize a linear plasmid with the mutation located within the 15 nucleotide overlapping ends, via recombination following the manufacturer's protocol for primer design and reaction conditions. The ALS genes, beginning with encoded amino acids SISK, (S48 to K51 in the G. max ALS1 protein (SEQ ID NO:1) corresponding to the mature protein N-terminus of the chloroplast localized enzyme), were cloned into the PMAL® E. coli expression vector (New England Biolabs) to express ALS as a fusion protein with a Maltose-Binding Protein (MBP) at the N-terminus with a thrombin site for cleavage and a His-6 tag for affinity purification. All in vitro protein characterization described in the examples was carried out with the isolated proteins after cleavage from the His-MBP fusion partner.
Km and Kcat determinations for recombinant ALS variants (with respect to pyruvate as the substrate) were performed using a colorimetric assay. ALS assays were carried out in 96-well microplates with 150 ul reaction containing 25 mM potassium phosphate, 0.2 mg/ml BSA, 15 mM MgCl2, 0.7 mM TPP, 28 uM FAD and 0-100 mM sodium pyruvate. Reactions were initiated by the addition of ALS enzyme to a final amount of 0.8 ug/well. Parameters for Km and Vmax were determined by fitting the velocity versus substrate concentration data to a rectangular hyperbola using GraphPad Prism software. Kcat values were determined from Vmax based on protein concentration in the reactions.

Molecule | Km | kcat
B1 | 11 mM | 68 min⁻¹
B2 | 40 mM | 50 min⁻¹
B3 | 35 mM | 9 min⁻¹
B4 | 27 mM | 130 min⁻¹
B5 | 3 mM | 109 min⁻¹
B6 | 3 mM | 168 min⁻¹
B7 | 21 mM | 27 min⁻¹
B8 | 14.8 mM | 251 min⁻¹
B9 | 5 mM | 65 min⁻¹
B10 | 14 mM | 28 min⁻¹
B11 | 3 mM | 163 min⁻¹
B12 | 1.8 mM | 65 min⁻¹
B13 | 4 mM | 109 min⁻¹
B14 | 36 mM | 21 min⁻¹
B15 | 20 mM | 81 min⁻¹
B16 | 6 mM | 150 min⁻¹
B17 | 40 mM | 36 min⁻¹

Each molecule was assayed on G. max ALS1 protein (assay: Substrate specificity ratio (Rf), pyruvate versus 2-ketobutyrate, LC-MS of reduced products). Details: ratio of [pyruvate] to [2-ketobutyrate] giving equal rates of acetolactate and acetohydroxybutyrate formation; 25 mM pyruvate.
Type: biochemical, Glycine max
From the text: The “substrate specificity ratio”, or “Rf”, characterizes the specificity of the ALS enzyme for AHB formation relative to AL formation (Gollop et al. (1989) Biochemistry 28:6310-6317). Rf is the ratio of [pyruvate] to [2-ketobutyrate] that results in equal rates of formation of acetolactate and acetohydroxybutyrate. Rf is a constant at all substrate concentrations. The substrate specificity ratio is ˜114 for the wild type Glycine max ALS1 enzyme (SEQ ID NO:1) compared to ˜3 for the highly resistant allele (HRA) double mutant variant (SEQ ID NO: 10) of the Glycine max ALS1. The soybean HRA sequence is disclosed, for example, in WO2007/024782, herein incorporated by reference.
Substrate preference was determined using the assay described in Example 3; however, the assay was conducted using a constant concentration of pyruvate (25 mM) and varying concentrations of the second substrate, 2-ketobutyrate. Each reaction involving a specific ratio of pyruvate to 2-ketobutyrate, after a set period of time, was quenched by addition of sodium borohydride (7-fold excess) to form the reduced adducts of the products of the two substrates namely; reduced acetolactate for the reaction with pyruvate and reduced aceto hydroxybutyrate for the 2-ketobutyrate reaction. The relative amounts of the two reduced products was determined by first, chromatographic separation using a 4.6×250 mm dC18 column (Atlantis) equilibrated with a 0.1% formic acid solution and subsequent elution using a methanol gradient at 0.7 ml/min, followed by detection using a Thermo FINNIGAN® LTQ® Mass Spectrometer (MS). The products of the two reactions were quantified by integration of the MS signals. The % of the amount of each of the reduced products was then plotted versus the concentration of 2-ketobutyrate. As the 2-ketobutyrate amount increased there was a consequent increase in reduced acetohydroxybutyrate (AHB) and decrease in reduced acetolactate (AL). […] The substrate specificity ratio was ˜114 for the wild type enzyme compared to 3 for the highly resistant allele (HRA) double mutant ALS variant (SEQ ID NO: 10).

Molecule | Substrate specificity ratio (Rf)
B1 | 10.7
B2 | 89.0
B3 | 21.7
B4 | 100.0
B5 | 83.3
B6 | 67.6
B7 | 29.0
B8 | 119.0
B9 | 119.0
B10 | 40.3
B11 | 86.0
B12 | 2.6
B13 | 49.0
B14 | 2.7
B15 | 100.0
B16 | 72.0
B17 | 100.0
